Results published in paper PMC8977243 (Journal of molecular biology, 2022).

B1: His6-ERK2 (enzyme, rat, UniProt P63086 1-358, looked up)
chain: MAAAAAAGPEMVRGQVFDVGPRYTNLSYIGEGAYGMVCSAYDNLNKVRVAIKKISPFEHQTYCQRTLREIKILLRFRHENIIGINDIIRAPTIEQMKDVYIVQDLMETDLYKLLKTQHLSNDHICYFLYQILRGLKYIHSANVLHRDLKPSNLLLNTTCDLKICDFGLARVADPDHDHTGFLTEYVATRWYRAPEIMLNSKGYTKSIDIWSVGCILAEMLSNRPIFPGKHYLDQLNHILGILGSPSQEDLNCIINLKARNYLLSLPHKNKVPWNRLFPNADSKALDLLDKMLTFNPHKRIEVEQALAHPYLEQYYDPSDEPIAEAPFKFDMELDDLPKEKLKELIFEETARFQPGYRS

Key:
His6-ERK2 = biological target: B1; assay: peptide or protein array
MBP-arrestin-2 = MBP-arrestin-2 (bovine, UniProt P17870 1-418); assay: pull-down

binding result (His6-ERK2) | binding result (MBP-arrestin-2) | Binder
binds | – | CKVYTLTPFLANNRE [arrestin-2-derived peptide CKVYTLTPFLANNRE]
– | binds | B1
